# Laboratory results taken from patent US20250269058A1, “GENE THERAPY FOR TREATING NEURODEGENERATIVE DISEASES” (ABRAIN, priority 2021, published 2025).
# What was measured:
# [1] = ThT assay of autoaggregation of Aβ42 WT or variant peptides; format: physicochemical; conditions: 10 μM peptide in PBS, 50 μM ThT, 37° C.
# Experimental: HFIP was evaporated overnight in a fume hood and then transferred to SpeedVac for 1 hour to remove any remaining traces of HFIP, Tubes containing the peptide film were kept over desiccant at −20° C. until used. Immediately prior to experimental use, lyophilized peptides were dissolved in 0.1% NH4OH to a final concentration of 100 μM and sonicated for 10 minutes in a bath sonicator.
# ThT fluorescence was measured using a Biotek Synergy H1 reader at an excitation wavelength of 440 nm and emission wavelength of 485 nm. Reactions were incubated at 37° C. and then shaken for 5 seconds every 10 minutes prior to reading the fluorescence.
# [2] = target: T1, human Tau 40 WT (Homo sapiens, UniProt P10636); assay: ThT assay, inhibition of human Tau 40 WT autoaggregation by Tau inhibitor; format: biochemical; conditions: 15 μM Tau protein and 30 μM inhibitor (1:2)
# T1 construct: His tag (inferred from Ni-NTA purification and pQE80 vector); made in house; host or cells: E. coli BL21-DE3
# Experimental: (§1) All inhibitor peptides were purchased from Biomatik. Dissolution was performed at a working concentration of 1.2 mM in deionized water, with a minimum purity of 95% or higher. Human Tau 40 WT was expressed by the pQE80 vector in BL21-DE3 E. coli cells grown to OD600=0.8 in LB medium. Cells were induced with 1 mM IPTG for 3 hours at 37° C. and further incubated for 4 hours, and then cultured E. coli cells were harvested by centrifugation at 5,000 rpm for 20 minutes. The obtained E. coli was resuspended in a dissolution buffer (50 mM NaH2PO4, NaCl 250 mM, 10 mM imidazole pH 8.0) and then dissolved by sonication. Cell lysates were purified by centrifugation at 15,000 rpm for 15 minutes, and 1 ml of 50% Ni-NTA slurry was added to 4 ml of the supernatant and shaken at 4° C. for 60 minutes (200 rpm on a rotator) to mix gently. […]
# (§2) Autoaggregation of human Tau 40 WT or Tau inhibitor was tested using 15 μM of human Tau 40 WT protein or 30 μM of inhibitor (SEQ ID NOs: 22 or 32), 8 μM heparin, and 50 μM ThT. ThT fluorescence was measured using a Biotek Synergy H1 reader at an excitation wavelength of 440 nm and emission wavelength of 485 nm. The reactions were incubated at 37° C., and measured every 15 minutes for 70 hours with orbital vibration of 425 cpm continuously. […]
# [3] = ThT assay of autoaggregation of human Tau 40 WT or Tau inhibitor; format: physicochemical
# Experimental: as §1, §2
# T1 sequence (P10636 1-441 isoform P10636-8): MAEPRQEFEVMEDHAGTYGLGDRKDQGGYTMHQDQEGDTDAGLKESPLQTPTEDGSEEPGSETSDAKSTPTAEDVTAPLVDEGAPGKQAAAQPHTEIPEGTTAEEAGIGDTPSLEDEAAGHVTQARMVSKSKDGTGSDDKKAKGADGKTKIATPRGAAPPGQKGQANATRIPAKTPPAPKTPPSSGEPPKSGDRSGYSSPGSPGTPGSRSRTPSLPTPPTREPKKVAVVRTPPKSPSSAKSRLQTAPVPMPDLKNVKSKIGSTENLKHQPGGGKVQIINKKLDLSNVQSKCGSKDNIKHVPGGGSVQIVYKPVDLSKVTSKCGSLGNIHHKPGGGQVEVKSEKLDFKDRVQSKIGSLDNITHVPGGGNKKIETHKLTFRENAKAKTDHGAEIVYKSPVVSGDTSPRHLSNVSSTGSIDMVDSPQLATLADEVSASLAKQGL
substance,measurement,setting,value
"Aβ42 WT: wild-type Aβ42 peptide, synthetic, purchased from Biomatik",autoaggregation in ThT assay,[1],generated aggregation
MDVQMINKKLK (Tau inhibitor) [SEQ ID NO: 22],inhibition of Tau WT aggregation (competition assay),[2],completely attenuated the aggregation of Tau WT
TVIVITLVMLKDVQMINKKLK (Tau inhibitor) [SEQ ID NO: 32],inhibition of Tau WT aggregation (competition assay),[2],completely attenuated the aggregation of Tau WT
Tau WT: Human Tau 40 WT protein expressed by the pQE80 vector in E. coli,time to peak of ThT binding,[3]; 1 nM of seed added to Tau WT,≤ 20 h
same,time to peak of ThT binding,"[3]; 15 μM human Tau 40 WT, 8 μM heparin, 50 μM ThT",≤ 70 h
